Data: patent US20210252159A1, “CONJUGATES OF CARTILAGE-HOMING PEPTIDES” (priority 2018, published 2021)
Positions of bridges follow the written chain, without caps; N, C: chain ends. Residues, ends and D or L forms follow the SMILES beside them. *: point of attachment. X1 = CC(CCC(C)C(=O)*)C(=O)OCC(=O)[C@@]1(O)[C@H](C)C[C@H]2[C@@H]3CCC4=CC(=O)C=C[C@]4(C)[C@@]3(F)[C@@H](O)C[C@@]21C

Tests used:
[1] = Hydrolysis assay of peptide-drug conjugates in human plasma (free Dex by LC/MS); format: in vitro ADME; details: 37° C., release of free Dex, time points to 32 hr, read-out: Half-life (hours) as measured in the hydrolysis experiments (converted)
Experimental: In order to determine hydrolysis rates, conjugates can be diluted in PBS, rat plasma, or human plasma and incubated at 37 degrees. Samples can be taken at designated time-points (e.g., 1, 2, 3, 5, 10, 15, 20, 25, 30, 45, 60, or 90 minutes and/or hours after administration). Internal standards such as triamcinolone acetonide (TAA) can be added as an internal standard, and then active agent/TAA can be extracted using acetonitrile, for example. The samples can be dried down, reconstituted, and analyzed by LC/MS. Data can be normalized using Dex AUC/TAA AUC. Percent hydrolysis can be calculated using the average ratio for active agent AUC/TAA AUC at a time point of maximal drug release. A general method can include using a lyophilized, purified peptide-drug conjugates reconstituted in DMSO following production to generate stock solution at 20 mg/mL. Each conjugate stock can be brought to 0.25 mg/mL in each hydrolysis condition (1×DPBS, human plasma and rat plasma) in triplicate and rocked at 37° C. To quantitate free active agent, 100 μl of the hydrolyzed conjugate solution can be transferred into 1 mL acetonitrile at 4° C. at which time all plasma proteins and intact conjugates can precipitate. This can be performed repeatedly to generate a series of time points (0 hr, 0.5 hr, 1 hr, 2 hr, 4 hr, 6 hr, 8 hr, 24 hr, 32 hr). The acetonitrile solution can be spun at 17,000 g for 5 minutes, and the supernatant removed and added to a 96 well block. The pellet can then be resuspended in 500 μl acetonitrile and re-pelleted as before. The supernatant can be removed and added to the same well in the block. Samples can be prepared for analysis by drying under a nitrogen stream followed by reconstitution in 110 μl 45:55 ACN:Citrate 10 mM pH 5.5. […] Quantification of free active agent (or drug) can be achieved through integration of active agent peaks of the TIC. […]
To quantitate free dexamethasone (Dex), 100 μl of the hydrolyzed conjugate solution was transferred into 1 mL acetonitrile at 4° C. at which time all plasma proteins and intact conjugates precipitated. […]

[2] = tested on: CIA rats; format: in vivo; details: 0.05 mg/kg on study day 0 and day 1
Experimental: A study was conducted in CIA rats to address the following: 1) functionality and duration of effect for peptide(SEQ ID NO: 105)-carbamate-Dex at 0.2 mg/kg as compared to Dex alone at the same dose; 2) functionality and duration of effect for peptide(SEQ ID NO: 105)-DMA-Dex at 0.05 mg/kg as compared to Dex alone at the same dose; 3) systemic markers of Dex exposure in rats treated with each PDC and Dex at their respective doses (FIG. 16B-FIG. 16G).
CIA was induced as described above in EXAMPLE 21. Rats were enrolled in the study following onset of arthritis in at least one ankle and randomly assigned into one of five treatment groups (vehicle; peptide-carbamate 0.2 mg/kg; Dex 0.2 mg/kg; peptide-DMA conjugate 0.05 mg/kg; Dex 0.05 mg/kg) with 5 rats per group. Treatment was administered on study day 0 and study day 1 and rats were euthanized on study day 7. The primary read-out in this cohort was change in ankle diameter during and after treatment, as a measure of functionality and duration of effect. […] The primary read-out for this cohort was measures of systemic exposure to Dex which included thymus weight, spleen weight, total white blood cell counts, lymphocyte counts, and change in body weight.

[3] = Hydrolysis assay of peptide-drug conjugates in PBS (free Dex by LC/MS); format: physicochemical; details: 37° C.
Experimental: In order to determine hydrolysis rates, conjugates can be diluted in PBS, rat plasma, or human plasma and incubated at 37 degrees. Samples can be taken at designated time-points (e.g., 1, 2, 3, 5, 10, 15, 20, 25, 30, 45, 60, or 90 minutes and/or hours after administration). Internal standards such as triamcinolone acetonide (TAA) can be added as an internal standard, and then active agent/TAA can be extracted using acetonitrile, for example. The samples can be dried down, reconstituted, and analyzed by LC/MS. Data can be normalized using Dex AUC/TAA AUC. Percent hydrolysis can be calculated using the average ratio for active agent AUC/TAA AUC at a time point of maximal drug release. A general method can include using a lyophilized, purified peptide-drug conjugates reconstituted in DMSO following production to generate stock solution at 20 mg/mL. Each conjugate stock can be brought to 0.25 mg/mL in each hydrolysis condition (1×DPBS, human plasma and rat plasma) in triplicate and rocked at 37° C. To quantitate free active agent, 100 μl of the hydrolyzed conjugate solution can be transferred into 1 mL acetonitrile at 4° C. at which time all plasma proteins and intact conjugates can precipitate. This can be performed repeatedly to generate a series of time points (0 hr, 0.5 hr, 1 hr, 2 hr, 4 hr, 6 hr, 8 hr, 24 hr, 32 hr). The acetonitrile solution can be spun at 17,000 g for 5 minutes, and the supernatant removed and added to a 96 well block. The pellet can then be resuspended in 500 μl acetonitrile and re-pelleted as before. The supernatant can be removed and added to the same well in the block. Samples can be prepared for analysis by drying under a nitrogen stream followed by reconstitution in 110 μl 45:55 ACN:Citrate 10 mM pH 5.5. To ensure optimal recovery the block can be shaken via plate shaker at 7,000 rpm for 5 minutes during the reconstitution step. Prior to LC/MS the samples can be transferred to a 96 well plate and centrifuged at 6,500 g for 15 minutes. Analysis can be performed on an Agilent 1260 Infinity series HPLC with inline 6120 single quad MS using acetonitrile, water (+0.1% TFA) gradient (shown below) on an InfinityLab Poroshell SB-C18 column. Quantification of free active agent (or drug) can be achieved through integration of active agent peaks of the TIC.
Lyophilized, purified peptide-drug conjugates were reconstituted in DMSO following production to generate stock solution at 20 mg/mL. Each conjugate stock was brought to 0.25 mg/mL in each hydrolysis condition (1×DPBS, human plasma and rat plasma) in triplicate and rocked at 37° C.
To quantitate free dexamethasone (Dex), 100 μl of the hydrolyzed conjugate solution was transferred into 1 mL acetonitrile at 4° C. at which time all plasma proteins and intact conjugates precipitated. This was performed repeatedly to generate a series of time points (0 hr, 0.5 hr, 1 hr, 2 hr, 4 hr, 6 hr, 8 hr, 24 hr, 32 hr). The corticosteroid triamcinolone acetonide (25 μl, 0.1 mg/mL in 45:55 ACN:Citrate 10 mM pH 5.5) was supplemented into the acetonitrile solution as an internal standard. The acetonitrile solution was spun at 17,000 g for 5 minutes, and the supernatant removed and added to a 96 well block. The pellet was resuspended in 500 μl acetonitrile and re-pelleted as before. The supernatant was removed and added to the same well in the block.
Samples were prepared for analysis by drying under a nitrogen stream followed by reconstitution in 110 μl 45:55 ACN:Citrate 10 mM pH 5.5. To ensure optimal recovery the block was shaken via plate shaker at 7,000 rpm for 5 minutes during the reconstitution step. Prior to LC/MS the samples were transferred to a 96 well plate and centrifuged at 6,500 g for 15 minutes. Analysis was performed on an Agilent 1260 Infinity series HPLC with inline 6120 single quad MS using a gradient of 0.1% TFA in acetonitrile (solvent B), and 0.1% TFA (aq) (solvent A) gradient (shown below) on an InfinityLab Poroshell SB-C18 column. […]

CC[C@H](C)[C@@H]1NC(=O)[C@@H]2CSSC[C@H](NC(=O)[C@H](CCCNC(=N)N)NC(=O)[C@@H](NC(=O)[C@H](CC(N)=O)NC(=O)[C@@H](NC(=O)[C@@H]3CCCN3C(=O)[C@@H](NC(=O)CNC(=O)[C@H](CO)NC(=O)CNC(=O)C(C)CCC(C)C(=O)OCC(=O)[C@@]3(O)[C@H](C)C[C@H]4[C@@H]5CCC6=CC(=O)C=C[C@]6(C)[C@@]5(F)[C@@H](O)C[C@@]43C)C(C)C)[C@@H](C)CC)C(C)C)C(=O)N[C@@H](CCCNC(=N)N)C(=O)NCC(=O)N[C@@H](CO)C(=O)N[C@@H](CCCNC(=N)N)C(=O)N[C@@H](CC(=O)O)C(=O)N[C@H]3CSSC[C@H](NC(=O)[C@H](CCCNC(=N)N)NC(=O)[C@H](CO)NC(=O)[C@H](CC(N)=O)NC1=O)C(=O)N[C@@H](Cc1c[nH]cn1)C(=O)N[C@H](C(=O)N[C@H](C(=O)N1CCC[C@H]1C(=O)O)[C@@H](C)O)CSSC[C@H](NC(=O)[C@@H]1CCCN1C(=O)[C@H](CC(=O)O)NC(=O)[C@H](CC(C)C)NC3=O)C(=O)N[C@@H](CCCNC(=N)N)C(=O)N[C@@H](CCCNC(=N)N)C(=O)N[C@@H](C)C(=O)NCC(=O)N[C@@H](CCSC)C(=O)N[C@@H](CCCNC(=N)N)C(=O)N[C@@H](Cc1ccccc1)C(=O)NCC(=O)N[C@@H](CCCNC(=N)N)C(=O)N2 (stereo partly shown) [Compound 27, peptide(SEQ ID NO: 105)-[dimethyladipic acid]-Dex] (X1-GSGVPINVRCRGSRDCLDPCRRAGMRFGRCINSRCHCTP-OH; disulfide 10-30, 16-35, 20-37 (inferred); C-terminus assumed)
half-life at 0.25 mg/mL [1]: 22.4 h
ankle diameter as compared to vehicle; magnitude and duration of effect [2]: significant reduction
Half-life (hours) as measured in the hydrolysis experiments ([3]; PBS, release of free Dex, time points to 32 hr): undetectable ≤32
Hydrolysis half-life ([3]; in PBS, free Dex): No Dex release ≤32 h
